B1: SEQ ID NO 7: Segniliparus rotundus carboxylate reductase, Genbank Accession No. ADG98140.1 (protein, listed as Segniliparus rotundus)
chain: MTQSHTQGPQASAAHSRLARRAAELLATDPQAAATLPDPEVVRQATRPGLRLAERVDAILSGYADRPALGQRSFQTVKDPITGRSSVELLPTFDTITYRELRERATAIASDLAHHPQAPAKPGDFLASIGFISVDYVAIDIAGVFAGLTAVPLQTGATLATLTAITAETAPTLFAASIEHLPTAVDAVLATPSVRRLLVFDYRAGSDEDREAVEAAKRKIADAGSSVLVDVLDEVIARGKSAPKAPLPPATDAGDDSLSLLIYTSGSTGTPKGAMYPERNVAHFWGGVWAAAFDEDAAPPVPAINITFLPLSHVASRLSLMPTLARGGLMHFVAKSDLSTLFEDLKLARPTNLFLVPRVVEMLYQHYQSELDRRGVQDGTREAEAVKDDLRTGLLGGRILTAGFGSAPLSAELAGFIESLLQIHLVDGYGSTEAGPVWRDGYLVKPPVTDYKLIDVPELGYFSTDSPHPRGELAIKTQTILPGYYKRPETTAEVFDEDGFYLTGDVVAQIGPEQFAYVDRRKNVLKLSQGEFVTLAKLEAAYSSSPLVRQLFVYGSSERSYLLAVIVPTPDALKKFGVGEAAKAALGESLQKIARDEGLQSYEVPRDFIIETDPFTVENGLLSDARKSLRPKLKEHYGERLEAMYKELADGQANELRDIRRGVQQRPTLETVRRAAAAMLGASAAEIKPDAHFTDLGGDSLSALTFSNFLHDLFEVDVPVGVIVSAANTLGSVAEHIDAQLAGGRARPTFATVHGKGSTTIKASDLTLDKFIDEQTLEAAKHLPKPADPPRTVLLTGANGWLGRFLALEWLERLAPAGGKLITIVRGKDAAQAKARLDAAYESGDPKLAGHYQDLAATTLEVLAGDFSEPRLGLDEATWNRLADEVDFISHPGALVNHVLPYNQLFGPNVAGVAEIIKLAITTRIKPVTYLSTVAVAAGVEPSALDEDGDIRTVSAERSVDEGYANGYGNSKWGGEVLLREAHDRTGLPVRVFRSDMILAHQKYTGQVNATDQFTRLVQSLLATGLAPKSFYELDAQGNRQRAHYDGIPVDFTAESITTLGGDGLEGYRSYNVFNPHRDGVGLDEFVDWLIEAGHPITRIDDYDQWLSRFETSLRGLPESKRQASVLPLLHAFARPGPAVDGSPFRNTVFRTDVQKAKIGAEHDIPHLGKALVLKYADDIKQLGLL
B2: SEQ ID NO. 17: Escherichia coli pimelyl-[acp] methyl ester esterase, GenBank Accession No. AAC76437.1 (protein, listed as Escherichia coli)
chain: MNNIWWQTKGQGNVHLVLLHGWGLNAEVWRCIDEELSSHFTLHLVDLPGFGRSRGFGALSLADMAEAVLQQAPDKAIWLGWSLGGLVASQIALTHPERVQALVTVASSPCFSARDEWPGIKPDVLAGFQQQLSDDFQRTVERFLALQTMGTETARQDARALKKTVLALPMPEVDVLNGGLEILKTVDLRQPLQNVSMPFLRLYGYLDGLVPRKVVPMLDKLWPHSESYIFAKAAHAPFISHPAEFCHLLVALKQRV

How the values were obtained:
Assay type in all cases: biochemical
[1] = Carboxylate reductase activity assay, N7-acetyl-7-aminoheptanoate to N7-acetyl-7-aminoheptanal; settings: purified enzyme enhanced by sfp gene product, 2 mM substrate, room temperature, 20 min; against empty vector control; FIG. 12
Protocol: The activity of each of the N-terminal His-tagged carboxylate reductases of SEQ ID NOs: 3, 6, and 7 (see Examples 4, and FIGS. 7B, 7E, and 7F) for converting N7-acetyl-7-aminoheptanoate to N7-acetyl-7-aminoheptanal was assayed in triplicate in a buffer composed of a final concentration of 50 mM HEPES buffer (pH=7.5), 2 mM N7-acetyl-7-aminoheptanoate, 10 mM MgCl2, 1 mM ATP, and 1 mM NADPH. The assays were initiated by adding purified carboxylate reductase and phosphopantetheine transferase or the empty vector control to the assay buffer containing the N7-acetyl-7-aminoheptanoate then incubated at room temperature for 20 min. The consumption of NADPH was monitored by absorbance at 340 nm.

[2] = Carboxylate reductase activity assay, pimelate to pimelate semialdehyde (NADPH consumption); settings: purified enzyme enhanced by sfp gene product, 2 mM pimelate, room temperature, 20 min; against empty vector control; FIG. 10
Protocol: A sequence encoding a HIS-tag was added to the genes from Segniliparus rugosus and Segniliparus rotundus that encode the carboxylate reductases of SEQ ID NOs: 4 and 7, respectively (see FIGS. 7C and 7F), such that N-terminal HIS tagged carboxylate reductases could be produced. Each of the modified genes was cloned into a pET Duet expression vector along with a sfp gene encoding a HIS-tagged phosphopantetheine transferase from Bacillus subtilis, both under the T7 promoter. Each expression vector was transformed into a BL21[DE3] E. coli host and the resulting recombinant E. coli strains were cultivated at 37° C. in a 250 mL shake flask culture containing 50 mL LB media and antibiotic selection pressure, with shaking at 230 rpm. Each culture was induced overnight at 37° C. using an auto-induction media.
The pellet from each induced shake flask culture was harvested via centrifugation. Each pellet was resuspended and lysed via sonication, and the cell debris was separated from the supernatant via centrifugation. […]
Enzyme activity assays (i.e., from pimelate to pimelate semialdehyde) were performed in triplicate in a buffer composed of a final concentration of 50 mM HEPES buffer (pH=7.5), 2 mM pimelate, 10 mM MgCl2, 1 mM ATP and 1 mM NADPH. […] The consumption of NADPH was monitored by absorbance at 340 nm.

[3] = Carboxylate reductase activity assay, pimelate semialdehyde to heptanedial; settings: purified enzyme enhanced by sfp gene product, 2 mM pimelate semialdehyde, room temperature, 20 min; against empty vector control; FIG. 13
Protocol: The N-terminal His-tagged carboxylate reductase of SEQ ID NO 7 (see Example 4 and FIG. 7F) was assayed using pimelate semialdehyde as substrate. The enzyme activity assay was performed in triplicate in a buffer composed of a final concentration of 50 mM HEPES buffer (pH=7.5), 2 mM pimelate semialdehyde, 10 mM MgCl2, 1 mM ATP and 1 mM NADPH. The enzyme activity assay reaction was initiated by adding purified carboxylate reductase and phosphopantetheine transferase or the empty vector control to the assay buffer containing the pimelate semialdehyde and then incubated at room temperature for 20 min. The consumption of NADPH was monitored by absorbance at 340 nm.

[4] = Pimeloyl-[acp] methyl ester methylesterase activity assay, pimeloyl-CoA methyl ester to pimeloyl-CoA (LC-MS); settings: 10 μM enzyme, 5 mM pimeloyl-CoA methyl ester, pH 7.0, 30° C., 1 h; FIG. 20
Protocol: A nucleotide sequence encoding a C-terminal His-tag was added to the gene from Escherichia coli encoding the pimeloyl-[acp] methylester methylesterase of SEQ ID NO: 17 (see FIG. 7H) such that a C-terminal HIS tagged pimeloyl-[acp] methyl ester methylesterase could be produced. The resulting modified gene was cloned into a pET28b+ expression vector under control of the T7 promoter and the expression vector was transformed into a BL21[DE3] E. coli host. The resulting recombinant E. coli strain was cultivated at 37° C. in a 500 mL shake flask culture containing 100 mL LB media and antibiotic selection pressure, with shaking at 230 rpm. Each culture was induced overnight at 18° C. using 0.3 mM IPTG.
The pellet from each induced shake flask culture was harvested via centrifugation. Each pellet was resuspended and lysed via sonication. The cell debris was separated from the supernatant via centrifugation. […]
Enzyme activity assays converting pimeloyl-CoA methyl ester to pimeloyl-CoA were performed in triplicate in a buffer composed of a final concentration of 25 mM Tris.HCl buffer (pH=7.0) and 5 [mM] pimeloyl-CoA methyl ester. […] The formation of pimeloyl-CoA was quantified via LC-MS.

Row | Molecule | acceptance of N7-acetyl-7-aminoheptanoate as substrate (NADPH consumption, absorbance at 340 nm) [1] | acceptance of pimelate as substrate (NADPH consumption, absorbance at 340 nm) [2] | acceptance of pimelate semialdehyde as substrate, forming heptanedial (NADPH consumption, absorbance at 340 nm) [3] | acceptance of pimeloyl-CoA methyl ester as substrate, forming pimeloyl-CoA (LC-MS) [4]
1 | B1 | accepted N7-acetyl-7-aminoheptanoate as substrate | accepted pimelate as substrate | accepted pimelate semialdehyde as substrate | –
2 | B2 | – | – | – | accepted pimeloyl-CoA methyl ester as substrate

From US10196657B2, “Methods of producing 7-carbon chemicals via methyl-ester shielded carbon chain elongation” (INVISTA North America S.á r.l., priority 2012, dated 2019)
